According to patent US20200140568A1 (XUANZHU BIOPHARMACEUTICAL, published 2020):

biological target: T1, HER2 extracellular domain (human, UniProt P04626 23-652); assay: ELISA, HER2 ECD coated on plate; T12 is the weaker comparator
T1 construct: extracellular domain; also called ErbB2; HER2 ECD
Method: (§1) The binding potency of antibodies to the antigen HER2 was determined using an ELISA assay. The HER2 extracellular domain was coated overnight on 96-well plates by adding 0.2 ug/100 ul/well of HER2 extracellular domain solution. The plates were washed 6 times with PBS, and blocked with 3% BSA and incubated for 2 hours. The plates were again washed 6 times with PBS. After 1 hour of binding, the plates were washed 6 times with PBS. Horse radish peroxidase (HRP) conjugated secondary antibody was added and incubated for 1 hr. HRP substrate TMB was added to each well and luminescence was read on plate reader. The data were then fitted into 4-parameter sigmoidal curve to generate IC50. Each sample was run in triplicate.

| binding result | Binder |
| --- | --- |
| binds | mAb T12 (antibody, V domains shown) VH: not shown VL: DIQMTQSPSSLSASVGDRVTITCKASQDVSIGVAWYQQKPGKAPKLLIYSASYRYTGVPSRFSGSGSGTDFTLTISSLQPEDFATYYCQQYYIYPYTFGQGTKVEIKR |

biological target: T1, HER2 extracellular domain; assay: ELISA, HER2 ECD coated on plate
Method: as §1

| binding result | Binder |
| --- | --- |
| binds | mAb T2 (antibody, human IgG1, kappa, V domains shown, Pertuzumab heavy chain with a mutated trastuzumab light chain) VH: EVQLVESGGGLVQPGGSLRLSCAASGFTFTDYTMDWVRQAPGKGLEWVADVNPNSGGSIYNQRFKGRFTLSVDRSKNTLYLQMNSLRAEDTAVYYCARNLGPSFYFDYWGQGTLVTVSS VL: not shown |
| binds | mAb T43 (antibody, V domains shown) VH: EVQLVESGGGLVQPGGSLRLSCAASGFTFADYTMDWVRQAPGKGLEWVADVNPNSGASIYNQRFKGRFTLSVDRSKNTLYLQMNSLRAEDTAVYYCARNLGPSFYFDYWGQGTLVTVSS VL: DIQMTQSPSSLSASVGDRVTITCRASQDVSTAVAWYQQKPGKAPKLLIYSASFLYYGVPSRFSGSRSGTDFTLTISSLQPEDFATYYCQQHYTWPPTFGQGTKVEIKR |
| binds | mAb T5 (antibody, human IgG1, kappa, V domains shown, Pertuzumab heavy chain with a mutated trastuzumab light chain) VH: EVQLVESGGGLVQPGGSLRLSCAASGFTFTDYTMDWVRQAPGKGLEWVADVNPNSGGSIYNQRFKGRFTLSVDRSKNTLYLQMNSLRAEDTAVYYCARNLGPSFYFDYWGQGTLVTVSS VL: not shown |
| binds | mAb T3 (antibody, human IgG1, kappa, V domains shown, Pertuzumab heavy chain with a mutated trastuzumab light chain) VH: EVQLVESGGGLVQPGGSLRLSCAASGFTFTDYTMDWVRQAPGKGLEWVADVNPNSGGSIYNQRFKGRFTLSVDRSKNTLYLQMNSLRAEDTAVYYCARNLGPSFYFDYWGQGTLVTVSS VL: not shown |
| binds | mAb T10 (antibody, human IgG1, kappa, V domains shown, Pertuzumab heavy chain with a mutated trastuzumab light chain) VH: EVQLVESGGGLVQPGGSLRLSCAASGFTFTDYTMDWVRQAPGKGLEWVADVNPNSGGSIYNQRFKGRFTLSVDRSKNTLYLQMNSLRAEDTAVYYCARNLGPSFYFDYWGQGTLVTVSS VL: not shown |
| binds | mAb T4 (antibody, human IgG1, kappa, V domains shown, Pertuzumab heavy chain with a mutated trastuzumab light chain) VH: EVQLVESGGGLVQPGGSLRLSCAASGFTFTDYTMDWVRQAPGKGLEWVADVNPNSGGSIYNQRFKGRFTLSVDRSKNTLYLQMNSLRAEDTAVYYCARNLGPSFYFDYWGQGTLVTVSS VL: not shown |
| binds | mAb T7 (antibody, human IgG1, kappa, V domains shown, Pertuzumab heavy chain with a mutated trastuzumab light chain) VH: EVQLVESGGGLVQPGGSLRLSCAASGFTFTDYTMDWVRQAPGKGLEWVADVNPNSGGSIYNQRFKGRFTLSVDRSKNTLYLQMNSLRAEDTAVYYCARNLGPSFYFDYWGQGTLVTVSS VL: not shown |
| binds | mAb T25 (antibody, V domains shown, Residue 56 counted along the entry is also G) VH: EVQLVESGGGLVQPGGSLRLSCAASGFTFTDYTMDWVRQAPGKGLEWVADVNPNSGASIYNQRFKGRFTLSVDRSKNTLYLQMNSLRAEDTAVYYCARNLGPSFYFDYWGQGTLVTVSS VL: DIQMTQSPSSLSASVGDRVTITCKASQDVSIGVAWYQQKPGKAPKLLIYSASYRYTGVPSRFSGSGSGTDFTLTISSLQPEDFATYYCQQYYIYPYTFGQGTKVEIKR |
| binds | mAb T9 (antibody, human IgG1, kappa, V domains shown, Pertuzumab heavy chain with a mutated trastuzumab light chain) VH: EVQLVESGGGLVQPGGSLRLSCAASGFTFTDYTMDWVRQAPGKGLEWVADVNPNSGGSIYNQRFKGRFTLSVDRSKNTLYLQMNSLRAEDTAVYYCARNLGPSFYFDYWGQGTLVTVSS VL: not shown |
| binds | mAb T8 (antibody, human IgG1, kappa, V domains shown, Pertuzumab heavy chain with a mutated trastuzumab light chain) VH: EVQLVESGGGLVQPGGSLRLSCAASGFTFTDYTMDWVRQAPGKGLEWVADVNPNSGGSIYNQRFKGRFTLSVDRSKNTLYLQMNSLRAEDTAVYYCARNLGPSFYFDYWGQGTLVTVSS VL: not shown |
| binds | mAb T26 (antibody, V domains shown) VH: EVQLVESGGGLVQPGGSLRLSCAASGFTFADYTMDWVRQAPGKGLEWVADVNPNSGASIYNQRFKGRFTLSVDRSKNTLYLQMNSLRAEDTAVYYCARNLGPSFYFDYWGQGTLVTVSS VL: DIQMTQSPSSLSASVGDRVTITCKASQDVSIGVAWYQQKPGKAPKLLIYSASYRYTGVPSRFSGSGSGTDFTLTISSLQPEDFATYYCQQYYIYPYTFGQGTKVEIKR |
